Reference: patent US20160177397, “APTAMER FOR DETECTION OF ALPHA-METHYLACYL-COA RACEMASE AND DIAGNOSTIC KIT THEREOF” (NATIONAL TAIWAN UNIVERSITY, published 2016)

Columns and labels:
[1] = target: Bovine serum albumin (BSA) (Bos taurus, UniProt P02769 P02769:25-607); assay: ELAA, 0.5 uM aptamer, 0.2 uM protein; conditions: tags: Sigma-Aldrich; label: biotin; stem-loops, B-form-like CD
Experimental: (§1) Enzyme-linked aptamer assays with typical black opaque 96-well polystyrene microtiter plates that resembled ELISA assays were carried out for (1) assessment of the affinity and specificity of the selected AMACR binding aptamers and (2) proof-of-concept fluorescent AMACR detection using aptamers. For the first task, varied concentrations of aptamers were tested with a constant protein concentration ([…]); for the second task, varied concentrations of proteins were detected using a constant aptamer concentration (500 nM). Both used the following ELAA protocol unless otherwise noted. For protein coating, AMACR diluted in 0.05 M sodium carbonate buffer (pH9.6) was added to the wells of the plates (100 μL/well) and incubated at 4° C. overnight. After incubation, the wells were washed three times with 200 μL/well of selection buffer containing 0.05% Tween 20. For blocking, each AMACR-coated well was added with 200 μL of 3 wt % BSA in the selection buffer containing 0.05% Tween 20 and was then incubated at 37° C. for 2 h. Afterward, wells were washed as previously described. Before protein assays, biotin-labeled aptamer sequences were suspended in the selection buffer, heated to 95° C. for 5 min, and gradually cooled to 25° C. Then each protein-coated well was added with 100 μL of aptamer solution (in the selection buffer) and was incubated at room temperature for 1 h followed by the same wash procedure. After that, each well was added with two drops (ca. 100 μL) of an alkaline phosphatase-conjugated streptavidin (Strep-AP) solution (0.003 mg/mL) (Abcam) and incubated at room temperature for 30 min followed by the washes. For fluorescent signal development, each well was added with 100 μL of AttoPhos® AP fluorescent substrate solution (Promega) and incubated in dark for at least 15 min. Finally, the fluorescent signal of each well was read by a fluorescent microplate reader (excitation at 435 nm and emission at 555 nm).
(§2) FIG. 5A represented the results of the equilibrium AMACR total binding assays using the fluorescent ELAA format for AMC51, AMC55, and AMC56.

[2] = target: T1, AMACR (alpha-methylacyl-CoA racemase, isoform CRA_c), homemade recombinant (Homo sapiens, UniProt Q9UHK6 Q9UHK6:1-382); assay: apparent Kd; fluorescent ELAA, AMACR coated at 0.2 uM; 50 mM Tris/HCl, 100 mM NaCl, 4 mM KCl, 2.5 mM MgCl2, 1 mM CaCl2, pH 7.4, room temperature; conditions: label: biotin; stem-loops, B-form-like CD
T1 sequence: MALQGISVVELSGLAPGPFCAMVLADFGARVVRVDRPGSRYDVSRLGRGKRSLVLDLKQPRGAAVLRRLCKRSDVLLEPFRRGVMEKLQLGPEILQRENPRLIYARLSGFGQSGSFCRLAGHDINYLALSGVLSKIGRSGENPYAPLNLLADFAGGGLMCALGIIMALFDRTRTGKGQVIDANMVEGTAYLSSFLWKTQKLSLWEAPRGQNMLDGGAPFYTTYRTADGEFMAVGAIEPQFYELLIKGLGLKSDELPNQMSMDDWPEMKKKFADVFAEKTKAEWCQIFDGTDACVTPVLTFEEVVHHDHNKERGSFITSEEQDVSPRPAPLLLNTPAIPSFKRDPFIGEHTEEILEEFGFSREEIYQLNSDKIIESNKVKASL
Experimental: as §1, with “Then each protein-coated well was added with 100 μL of aptamer solution (in the selection buffer) and was incubated at room temperature for 1 h followed by the same wash procedure. After that, each well was added with two drops (ca. 100 μL) of an alkaline phosphatase-conjugated streptavidin (Strep-AP) solution (0.003 mg/mL) (Abcam) and incubated at room temperature for 30 min followed by the washes. For fluorescent signal development, each well was added with 100 μL of AttoPhos® AP fluorescent substrate solution (Promega) and incubated in dark for at least 15 min.” left out, “nm). […]” for “nm).”

[3] = target: T2, Human serum albumin (HSA) (Homo sapiens, UniProt P02768 P02768:25-609); assay: ELAA, 0.5 uM aptamer, 0.2 uM protein; also no significant cross-reactivity in FIG. 6 dose series; conditions: tags: Sigma-Aldrich; label: biotin; stem-loops, B-form-like CD
Experimental: as §1, with “Then each protein-coated well was added with 100 μL of aptamer solution (in the selection buffer) and was incubated at room temperature for 1 h followed by the same wash procedure. After that, each well was added with two drops (ca. 100 μL) of an alkaline phosphatase-conjugated streptavidin (Strep-AP) solution (0.003 mg/mL) (Abcam) and incubated at room temperature for 30 min followed by the washes. For fluorescent signal development, each well was added with 100 μL of AttoPhos® AP fluorescent substrate solution (Promega) and incubated in dark for at least 15 min.” left out, “nm). […]” for “nm).”

[4] = target: T1, AMACR (alpha-methylacyl-CoA racemase, …); assay: apparent Kd; fluorescent ELAA, same buffer, room temperature; conditions: label: biotin; stem-loops, B-form-like CD
Experimental: as §1, with “Then each protein-coated well was added with 100 μL of aptamer solution (in the selection buffer) and was incubated at room temperature for 1 h followed by the same wash procedure. After that, each well was added with two drops (ca. 100 μL) of an alkaline phosphatase-conjugated streptavidin (Strep-AP) solution (0.003 mg/mL) (Abcam) and incubated at room temperature for 30 min followed by the washes. For fluorescent signal development, each well was added with 100 μL of AttoPhos® AP fluorescent substrate solution (Promega) and incubated in dark for at least 15 min.” left out, “nm). […]” for “nm).”

[5] = target: T2, Human serum albumin (HSA); assay: ELAA, 0.5 uM aptamer, 0.2 uM protein; conditions: tags: Sigma-Aldrich; label: biotin; stem-loops, B-form-like CD
Experimental: as §1, §2

T2 sequence (P02768 25-609, one chain of several): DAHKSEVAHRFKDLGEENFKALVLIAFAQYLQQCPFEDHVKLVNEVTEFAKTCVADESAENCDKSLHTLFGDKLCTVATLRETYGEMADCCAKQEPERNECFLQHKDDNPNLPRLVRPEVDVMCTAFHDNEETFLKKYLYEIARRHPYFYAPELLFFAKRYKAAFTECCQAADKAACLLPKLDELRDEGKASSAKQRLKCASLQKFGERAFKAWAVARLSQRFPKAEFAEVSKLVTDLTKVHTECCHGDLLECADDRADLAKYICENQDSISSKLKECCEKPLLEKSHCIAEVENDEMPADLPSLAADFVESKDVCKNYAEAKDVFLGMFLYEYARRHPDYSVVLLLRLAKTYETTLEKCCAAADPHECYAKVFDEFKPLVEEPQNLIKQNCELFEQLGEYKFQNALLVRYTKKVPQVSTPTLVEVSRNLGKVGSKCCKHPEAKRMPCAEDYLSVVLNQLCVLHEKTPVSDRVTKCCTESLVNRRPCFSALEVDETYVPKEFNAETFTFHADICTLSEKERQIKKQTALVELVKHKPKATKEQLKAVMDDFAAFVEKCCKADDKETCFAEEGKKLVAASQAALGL
Chain of Bovine serum albumin (BSA) (P02769 25-607, one chain of several): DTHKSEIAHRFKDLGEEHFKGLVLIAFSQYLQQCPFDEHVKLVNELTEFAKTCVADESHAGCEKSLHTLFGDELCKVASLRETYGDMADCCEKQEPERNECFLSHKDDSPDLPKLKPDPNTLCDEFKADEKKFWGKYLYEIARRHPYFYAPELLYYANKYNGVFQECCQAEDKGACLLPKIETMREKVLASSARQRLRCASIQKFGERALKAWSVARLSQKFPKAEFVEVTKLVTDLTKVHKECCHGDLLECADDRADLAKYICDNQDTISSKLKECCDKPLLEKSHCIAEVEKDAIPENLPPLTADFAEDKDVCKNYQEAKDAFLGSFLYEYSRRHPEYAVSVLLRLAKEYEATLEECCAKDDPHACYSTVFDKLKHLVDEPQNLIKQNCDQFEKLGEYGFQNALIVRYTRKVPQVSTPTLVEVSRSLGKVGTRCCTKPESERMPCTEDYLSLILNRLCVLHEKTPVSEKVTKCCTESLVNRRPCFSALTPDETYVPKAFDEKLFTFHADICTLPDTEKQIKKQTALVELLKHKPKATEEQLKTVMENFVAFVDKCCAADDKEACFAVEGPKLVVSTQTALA

B1: AMC51 (ssDNA)
DNA: CCCTACGGCGCTAACCCATGCTACGAATTCGTTGTTAAACAATAGGCCACCGTGCTACAA
binding result [1]: no binding | Kd [2]: 49 nM | binding result [3]: no binding

B2: AMC56 (ssDNA)
DNA: CCCTACGGCGCTAACCCAGCTACTCTAGAACCCATTATATTTTGGGCCACCGTGCTACAA
Kd [4]: 65 nM | binding result [5]: no binding | binding result [1]: no binding

B3: AMC55 (ssDNA)
DNA: CCCTACGGCGCTAACCAGTATGTTCCGGATTGGAGAGCTCCTGTTGCCACCGTGCTACAA
Kd [4]: 139 nM | binding result [5]: no binding | binding result [1]: no binding
